For two substances, IC50 of neutralisation, pseudovirus luciferase assay results are on record in publication PMC7857400.

This experiment has as its target SARS-CoV-2 spike protein receptor binding domain (RBD) (SARS-CoV-2) (UniProt P0DTC2).

homotrimeric Nb20 (Nb20_(3)) came in with an IC50 of neutralisation, pseudovirus luciferase assay of 4.1 pM.

Turning to homotrimeric Nb21 (Nb21_(3)), the IC50 of neutralisation, pseudovirus luciferase assay worked out at 1.3 pM.
